Test: soluble on expression in E. coli; label from the status in PepcDB or PDB records

Row | Sequence | soluble on expression in E. coli
1 | QDLTLSFNHIKSAVIYSAYPLTDKQVGELVQMLNKRFDSELKISVEIEPELIGGIKVEVGDQVLDLSVQGKLSALYTTMTN | not soluble
2 | MVFDAIVVTDLQGFIIDWNKGSETLYGYSKEQAIGQPVNMLHVPGDTEHITSEVISAVENQGKWTGEIRMLHKDGHIGWIESMCVPIYGENYQMVGALGINRDITKRKKELEHHHHHH | not soluble
3 | GSPELGFSISGGVGGRGNPFRPDDDGIFVTRVQPEGPASKLLQPGDKIIQANGYSFINIEHGQAVSLLKTFQNTVELIIVREVGNGAKQEIRVRVEKDGGSGGVSSVPTNLEVVAATPTSLLISWDAYRELPVSYYRITYGETGGNSPVQEFTVPGSKSTATISGLKPGVDYTITVYAHYNYHYYSSPISINYRT | soluble
4 | QNLPQGDLMQHGMMAVKAATLSDAEVRQVADQACAESDQQNRIAPANSKYGQRLDKIAKALGDQIDGVPVNYKVYLTEEVNAWAMANGCIRVYSGLMELMSDNEIEGVLGHEMGHVALGHTRKAAQTAYAAAAVRGAAGASKSGALAALSGSQLGELTESLVNAQFSQSQESDADDFSYELLKKRGVNTQGLVTAFEKLAKLGGGDSSMFDSHPGSQARADHIRQRIAADR | not soluble
5 | MDAIMMEHRNDFWVFGYGSLMWRPGFAHVETVRARLHGYRRSLCIYSHVHRGTPDHPGLVLGLDTGGSCLGIAFRVPGDMTDEVMTYLREREMANKVYHEKKLHLRLADGRIVEAVAYVADRRHRQYAGRMTSEKAAAIIASAQGESGANIDYVTNTLMHLRNMRVRDHALEHINELVLAAASRQANNAALEHHHHHH | soluble
6 | KSVVIGKDALIGWHGGANQSDEMWDQSVPSQYEKQFYRYLTRLRIKEAEFYNKVGVDPNITVYGHTRTNTCQRSTLANGWYYTESDMRHMGIKNLTVQGELLNTLNYNNSEINSCLMPQIFN | not soluble
7 | MAGDPMNIDYSVLKKYPLCDRCFGRLYGKLIRSSNFDRGHALKLAKAIELEEDLRTALEKMNETPENSEVNPTDLEKLEEIKELMYALHKTGTSGIKLDLIDDIEKYETKFKNEAEYEKNEECDELCPWCKGIFEPENIEKVAENVVEALSEYEFDSFLVGTKLPKRFKELENEIETPFMESIRQEFGRELGKVVVPLIKRRVDKENPDIVVMVNPYNQKVTLQVNPVFIKGRYKKLVRGIPQSHWDCRSCRGKGCEKCNFTGKQYMTSVEEIIAEPFMDVMKGSSEALHGAGREDIDVRMLGHGRPFVIEIKEPKIRKVNLEELASKVNESGNVEIINVEYGVKKDVHFFKNEPHKKTYLAHVECEEKVSNEEVAELVKKLEDLTIDQRTPDRVSHRRADLVRVRKVYKAWPHMIDDYNFELKIFCDGGLYIKELINSDEGRTTPSVSELLNKKCICKFLDVLDVHDYEDAENILEHHHHHH | soluble
8 | MGSDKIHHHHHHMDKLDNYIVTILEKSITPRKSPFLHTILAGRRTGQAVQDAHLFQMQHLFGLVPNLKLNYLETRLKELMRQGIITVTENGYTVKQKPNFSFEMSFPSFHGFAFQQQVFAFFAHLRLAVQVVSNKHHAEKYYLPVIRDKKVQQFIKIWLQNQQQEDLADRLYIELIKWFNSLAVSRPEFLVERFSGGKLMGYTTEQIATKYQVEKWDVYFEVLHELHRLIAAIKESEEEWPLLASLIPNELMSLTSSAIKTYTLWAKGMDLEMIERIRNLKTSTIQDHFVEIRATLKEAQVPYLPEEELIQSINSRNWHLLRDIKAAFPDLDYYQIRLAVVSKEDEQ | not soluble
9 | MYIVNSNKSRGSSVERYIVSRLRDKGFAVIRAPASGSKRKDHVPDIIALKSGVIILIEVKSRKNGQKIYIEKEQAEGIREFAKRSGGELFLGVKLPKMLRFIKFDMLRQTEGGNYAIDLETVEKGMELEDLVRYVESKISRTLDSFL | soluble
10 | MRDSLNNGVSLQQAQETYFAKFNHYSYMAHFVAKILGQRPSHVLSGWGVSELIVAYGHYANEQSYQNFMDWKSSQENAPKPKQPQPFVVQFISQDELEEVE | not soluble
11 | MAFICELDEQWSYVGSKARQHWLGYAYNTKTGGVLAYTFGPRTDQTCRELLALLTPFNIGMLTSDDWGSYGREVPKNKHLTGKIFTQRIERNNLTLRTRIKRLGRKTICFSRSVEIHEKVIGAFIEKHMFYLEHHHHHH | soluble
12 | MRSEAKNQKPTAYPMKGIDDLPLHEIIEPALDITSPQVACVGIGVRAVCNYDCVYCYAGHSDKRGDMSVEQYFDVMEQAAELGVKTIIMTGAGGKSEPGLFKGLLPILERASSLGMSTAMFTNGSQFGDDKVARIHNLSAVELAHKIRELKVSLFIACETLEPDLYSNITKKPIAPFQTGLINLIAAGFIGTPGEPTSVTISSVIMRQNFEELPVLQKFAHNNGWQYICKFPTLVGSALDHPELFFSPEEAAERHSIVAELRDKPETLTVTHSGAEYCLVNQVGMSFDNLGTPLNCLSGCEITSRKDMNLKSMRLADIVLLKKHLAHQGIGNCPKKAVFYDFKQPKLEAAAFHGLS | not soluble
13 | MTEDERFAWLQLAFTPYIGAESFLLLMRRFGSAQNALSAPAEQVAALIRHKQALEAWRNAEKRALARQAAEAALEWEMRDGCRLMLLQDEDFPEMLTQGLTAPPVLFLRGNVQLLHKPSAAIVGSRHATPQAMRIAKDFGKSLGGKGIPVVSGMASGIDTAAHQGALQAEGGTIAVWGTGIDRIYPPVNKNLAYEIAEKGLIVSEFPIGTRPYAGNFPRRNRLIAALSQVTLVVEAALESGSLITARLAAEMGREVMAVPGSIDNPHSKGCHKLIKDGAKLVECLDDILNECPGLLQNTGASSYSINKGIPEKRITAVQTASDQLSLPEGKMPSEKTENRPVGGSILDRMGFDPVHPDVLAGQLAMPAADLYAALLELELDGSVAAMPGGRYQRIRT | not soluble
14 | MPGSRTYRKVDPPDVEQLGRSSWTLLHSVAASYPAQPTDQQKGEMKQFLNIFSHIYPCNWCAKDFEKYIRENAPQVESREELGRWMCEAHNKVNKKLRKPKFDCNFWEKRWKDGWDE | not soluble
15 | QLAAIDAFDRLTALMTSHFDIDVAFVGLMDEHEERFVACEGANWRTLAREDTICTHTILSDETMVVEDTHEDPRFAEVDALKRLNIRSYAGGRITDREGNAIGAVCCTDGEPRRYTQTERDDLQRFADEVEEQLLLRRRLQGDR | not soluble
16 | MIRHRFSAEDFHRMAEAGILGEDDRVELIRGEVVELSPVGKRHMAALKRLMNALFPLQQAKKALLQVQDPLRLFPDTEPQPDLALLAYRDDFYRERVPEAKDALLVVEVAETSLDHDLQVKLPLYAQAGIPEVWVVDLVREKVHVFRKPQGEGYGEAQALEDGELSVLGLKVPVKEVLP | soluble
17 | AWVDQTPRTITKETGESLTIKCVLKDHSCGLSSTTWYRTQLGSTNEKTISIGGRYDETVDKGSKSFSLRISDLRVEDSGTYKCQADYSPSCYSYPSLESAVEGAGTVLTVK | soluble
18 | MDLFKIEANYIDIFNKEIYPASIAIANGHIASIEKINATLDEYVLPGFIDAHIHIESSFLVPSNFAHLVVAHGTVATISDPHEIANVNGIDGINFMINNSKKTEFKFFFGAPSCVPALSQEFETSGYVLNDKDIDELMKLDDIYYLAEVMDFKGVINKDIEIINKINSALKRNKVVDGHAPGLSPNLTLKYASSGISTDHECLTIEDARYKLSLGMKILIREGSAAKNFESLHPLISECSKKYCDSLMFCFDDAHPNDILNGHINLIVARAIKHGHDFFDVLKIACINPVLHYKIPVGLLRIGDPADFIITKDIKTFKINKTYINGKLVFNDGISLIPLINEIPINNFNCSKKSISDFKFSTKNKMIPVIKCISNQIITHKTMIDSNLLAPDFQSNIAEDILKIAIINRYKDNSKISIGFIKNFGIRNGAIGSTVAHDSHNIILVGSNDEYLCKAANTIIQNKGGLCALNNEKTIIMELPISGLMSTLSAERVASQYIKLNDFCKNVLGSRLDDPLMTLSFMSLTVVPHLKINDKGLFDVDSFCFVDYLEHHHHHH | not soluble
19 | MSRSGEFCPRCGDEIPEGTDERPELAGAGGQRNSEHVLCDACYFEEFDLVDAPDTIQVRVCSRCGAVHKGNRWVDIGAEDYTDIAVEQVSEALGIHVDAQSVAWQVAPEQLDKNNIRMHAEFSGVIRGTPVTEEVTVPVRISRQTCKRCGKIAGGSFASIVQVRADGRDPTDDERERAEEIAQEYVAAREETGDRNAFITETKSVDDGLDMKISTNQMGLGIAKRITAQLGGSYSDSRRLISEDEDGQELYRMTYAVRLPRYRQGEVIDPEDGDGPVLVRSVQGNLKGVRLATGEDYEASFEAGETPDARRLGFREDGQQTTLVAIEDERAVQVLDPETFESKTVPRPDYLDIDADEVPVLKSHAGLHILPAADADTDELEHHHHHH | soluble
20 | MGSDKIHHHHHHMPDLFVTNFNRNFTGVSATAANVIRQQVATHDLALVGHALPGCPAPISARAARALSRTPPPGKPFAIWHVRRNPEMQTAIWARDVLRLPIRIVFTSAAIRRHSAFPRWLISRMDAVVATSDAAASFVPHVRAVVPHGVDTDRFTPAPDRPAAWAAQGYGGSFGIATIGRVRPEKGTDLFVEAMLRLLPDMPGAVALVVGRATKEHQKFALTLKDKVQRAGMIDRIRFIDEVPPDRLPDLMRALSLVVQLPRYEGYGMVPLEAMASGVPFVGSDTGFFREFSAQGRAGRVVPLENAGLGAEAARALLADEDVHGAAALAAREIAVESFSAAREAAGIEAVYQQLWSQAAPGA | not soluble
21 | MNQEKIADLKNWMHQEKIDFTYISDPGHIAYFSGYESEPHERVLALFIAADDQSFLFTPALEVEDAEKSSWTYPVYGYLDSENPWEKIAALLNKRTQGTPRFALEKQALSLARFDQLKTYFPASDFSHDVTPLIEKLQLIKTEPEIQRLLEAGSWADVAFEIGFKAIQAGVAEQEIVAEIEYQLKRQGIRSMSFDTLVLTGKNGASPHGVPGETKIEPHDLVLFDLGVVHNGYCSDATRTVSYLEPSDFQKEIYGIVLEAQLAATEAVKPGVTAGELDDIARGVITKAGYGEYFNHRLGHGIGTTVHEYPSLVHGNDLVIEEGMCFSIEPGIYIPGKVGVRIEDCLHVTKTGSEPFTKTTKELQIIQ | not soluble
22 | DLVASGATLPEIQKRGYLTVAVKDNLRPLGFRDDKGNLQGLEIDLAKRLANDLLGKPDAVKFQPVANSDRLPVIVENKIDLAIANVTATESRSRIVSFSVPYYYDGAAIVTKDTSINQLEDLYRRKIAVLNNSSTIFYVKYFIPKSELIGVSSYAQAQEKIESNAVDAFAADNSLLSGWVQEYPKYHILPSQLSTEPLSVVMAKGLQYDEFRRSVNEAIARYIATGWLKESTQHWGLGNSQEKTLTTDR | not soluble
23 | MLRVVEVCWRESHMKVLAINSSPRMDKGNTALILNPFLEGMKEAGAEVELFYTKKLKISPCTGEFNCWLKTPGKCYQNDDMNILYPRIDAADVIVFATPVYVDGVTGQMKNFIDRMLPRVEPFVELRDGHCRHPVRGGPKALKFVLVSNCGFWEMDNFDSLLVFMKAFCKNASTEFAGALLRPHGEALSSMLEMGAPIDDVFEAAREVGRQLVKEGKMSQETLDIVSRELLPKEMYIQIANQTFRQCLESLDRLEHHHHHH | not soluble
24 | MGSDKIHHHHHHVSSSLKDIQNKNQELDTKKQILSALNIRDVKDADAEYNKYVKGDMLMNVDGTLTENTDGFSISYEKEAKENNRLHVFVCEVDGETKYVVPVYGAGLWGAIWGYVALNADKDTVYGVYFSHASETPGLGAEIAGAAFQNEFSGKKVLKDGQVALAVEKNGKVTDPAYQVDGISGGTITSKGVDAMIKACLSQYDKFLTNN | not soluble
25 | MGSDKIHHHHHHMQRHLVDEFWCINVDSTAWSKVLHRGTRREFKKGEQIVSAGELVTQLRYLESGSVCMKRTTLDGNEKILMHIERSSLFCEVPFFTGDEIHSSFNCHRDAVVYCFSKEVVDDILEMYPCIAKDIIRTLSMKVSVLSNQIASLGLDTLEQRIAKFILLRYNLMNLADADLMTLGTLRMKDVASILGVHRATLYRALKTMEKMRLIKLLNENRLQVLNIEALAALANH | not soluble
